Tests used:
[1] = target: T1, SNX1-BT*:SNX5-BT* heterodimer (human, UniProt Q13596 1-522; Q9Y5X3 1-404); experiment: ITC
[2] = target: T2, SNX1-SAH^3A:SNX5-SAH^3A heterodimer (human, UniProt Q13596 1-522; Q9Y5X3 1-404); experiment: ITC
[3] = target: T1, SNX1-BT*:SNX5-BT* heterodimer; experiment: ITC; representative single experiment
[4] = target: T2, SNX1-SAH^3A:SNX5-SAH^3A heterodimer; experiment: ITC; representative single experiment

T2 sequence (Q13596 whole entry, chain 1 of 2): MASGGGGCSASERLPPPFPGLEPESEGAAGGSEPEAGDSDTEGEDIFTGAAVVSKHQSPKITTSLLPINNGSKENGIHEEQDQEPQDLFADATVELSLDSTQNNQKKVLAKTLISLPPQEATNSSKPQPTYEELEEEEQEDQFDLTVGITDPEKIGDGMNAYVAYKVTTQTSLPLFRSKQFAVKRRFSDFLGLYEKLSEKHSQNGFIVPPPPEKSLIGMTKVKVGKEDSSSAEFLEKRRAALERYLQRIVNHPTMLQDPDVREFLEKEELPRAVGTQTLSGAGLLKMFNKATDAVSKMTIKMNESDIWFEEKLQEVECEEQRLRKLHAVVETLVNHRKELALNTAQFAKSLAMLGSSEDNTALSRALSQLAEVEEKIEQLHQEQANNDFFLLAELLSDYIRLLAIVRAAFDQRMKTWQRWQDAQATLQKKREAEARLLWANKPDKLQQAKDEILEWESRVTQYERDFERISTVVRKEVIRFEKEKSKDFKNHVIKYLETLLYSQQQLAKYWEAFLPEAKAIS
T2 sequence (Q9Y5X3 whole entry, chain 2 of 2): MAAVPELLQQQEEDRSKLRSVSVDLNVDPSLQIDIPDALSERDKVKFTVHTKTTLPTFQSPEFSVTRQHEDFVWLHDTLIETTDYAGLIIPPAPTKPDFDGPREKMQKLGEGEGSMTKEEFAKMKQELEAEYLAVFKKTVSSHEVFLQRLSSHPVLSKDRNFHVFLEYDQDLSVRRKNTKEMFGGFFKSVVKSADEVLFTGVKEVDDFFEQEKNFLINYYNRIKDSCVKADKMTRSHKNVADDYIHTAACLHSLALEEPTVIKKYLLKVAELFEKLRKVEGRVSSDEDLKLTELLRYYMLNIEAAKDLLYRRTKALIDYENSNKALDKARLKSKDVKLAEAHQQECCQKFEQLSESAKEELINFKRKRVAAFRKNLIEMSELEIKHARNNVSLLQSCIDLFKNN
T1 sequence (Q13596 whole entry, chain 1 of 2): as the sequence (Q13596 whole entry, chain 1 of 2) above
T1 sequence (Q9Y5X3 whole entry, chain 2 of 2): as the sequence (Q9Y5X3 whole entry, chain 2 of 2) above

Kd [1]: 10.4 µM
Kd [2]: 5.06 µM
Kd [3]: 9.96 µM
Kd [4]: 4.64 µM
B1: CI-MPR_(2347–2375) peptide (bipartite sorting motif of the cation-independent mannose-6-phosphate receptor tail) (peptide)
peptide: SNVSYKYSKVNKEEETDENETEWLMEEIQ
